Assays:
[1] = system: Jurkat cell line stably overexpressing human TIGIT; experiment: CDC assay with human complement; assay type: cell-based; details: increasing concentrations up to 33 nM
Experimental: Briefly, 50,000 Jurkat-TIGIT cells in RPMI 1640 medium (Invitrogen) containing 10% fetal bovine serum (FBS) were seeded into a 96-well round bottom plates (Nunc). Test antibodies were added starting at a top concentration of 50 μg/ml followed by a three-fold dilution series and allowed to incubate with cells for 1 hour at 37° C. in a 5% CO2 incubator. After this 1-hour incubation, human complement was added and allowed to incubate for an additional 3 hours at 37° C. in a 5% CO2 incubator. Following the completion of this 3-hour incubation, […] of propidium iodide (ThermoFisher) was added and samples were analyzed by flow cytometry (BD FACSCalibur) to determine the percentages of propidium iodide positivity as a readout for cell death.

[2] = Pharmacokinetics of domvanalimab in humans; assay type: in vivo, human; details: Q2W
Excerpt: The present example illustrates the pharmacokinetics of domvanalimab in human subjects. […] Subjects had ≥1 measurable lesion per RECIST v1.1 and ECOG performance status score 0-1.
Examination of the mean PK plots indicated similar PK across the dosing regimens.

[3] = Population PK model and simulations; parameters: species or system human
Experimental: All available PK data from this study were combined in a population PK model. […] The population PK model confirmed that the PK of domvanalimab was dose-linear over the dose range and consistent across the dosing regimens.
Simulations were run with the model of n=500 patients each at 10 mg/kg Q2W, 15 mg/kg Q3W, and 20 mg/kg Q4W dosing regimens for 24 weeks.

TIGIT = biological target: T1, TIGIT (Homo sapiens, UniProt Q495A1); experiment: TIGIT receptor occupancy (RO) assay in whole blood by flow cytometry; assay type: in vivo
T1 construct: select peripheral lymphocyte populations in whole blood collected from patients enrolled in a clinical study; endogenous in cells; host or cells: peripheral lymphocytes in whole blood of dosed patients
T1 sequence (Q495A1 22-244): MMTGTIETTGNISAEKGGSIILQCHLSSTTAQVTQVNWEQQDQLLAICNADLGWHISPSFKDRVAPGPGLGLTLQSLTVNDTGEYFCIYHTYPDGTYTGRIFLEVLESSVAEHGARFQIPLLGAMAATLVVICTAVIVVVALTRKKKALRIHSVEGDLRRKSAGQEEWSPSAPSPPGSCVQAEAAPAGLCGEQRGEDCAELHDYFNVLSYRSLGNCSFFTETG
Experimental: The RO assay is depicted in FIG. 3A and FIG. 3B.
The RO of domvanalimab on select peripheral lymphocyte populations in whole blood collected from patients enrolled in a clinical study was assessed by flow cytometry using pre- and post-dose whole blood samples. […] RO was determined on various immune cell types using antibodies specific for surface markers CD3, CD4, CD8, CD56, FoxP3, and Ki67. RO was calculated as follows: […]

[4] = system: CD4+ T cells, CD8+ T cells, and Tregs; experiment: Peripheral T cell absolute counts and frequencies (Trucount, flow cytometry); assay type: in vivo, human; details: humans
Experimental: White blood cell counts for 11 patients have been followed for up to 85 days of treatment. See Table 17 for additional patient details. Cell counts were assessed in pre- and post-dose whole blood patient samples using commercially available Trucount tubes (BD Biosciences). CD45, CD3, CD4, CD8, CD25, and CD127 antibodies were used to detect peripheral blood T cells and Tregs using flow cytometry. The antibody cocktail and […] of whole blood was added to Trucount tubes, vortexed, and incubated for 15 minutes at room temperature. The stained whole blood was lysed using 900µl of 1×BD FACs Lyse solution followed by vortexing, and incubation for 15 minutes at room temperature. Absolute counts were calculated as detailed in the Trucount technical data sheet. Briefly, the absolute count of a cell population (A) was obtained by dividing the number of positive cells events (X) by the number of bead events (Y), and then multiplying by the BD Trucount bead concentration (N/V, where N is the number of beads per test and V is the test volume). A=X/Y×N/V. Absolute cell count was then reported per μl of whole blood (WB).
Absolute cell counts were not measured in all patients due to limited sample collection. […] Frequencies of different populations were determined relative to a parent population and each timepoint was normalized to baseline (C1D1 predose) to compute fold change.

[5] = first cycle, over 20-fold dose range 0.5-10 mg/kg

B1: domvanalimab: anti-TIGIT antibody with engineered IgG1 Fc, reduced FcγR binding; heavy chain SEQ ID NO: 12, light chain SEQ ID NO: 13 (antibody)
heavy: EVQLVESGGGLVQPGGSLRLSCAASGFTFSNFGMHWVRQAPGKGLEWVAFISSGSSSIYYADTVKGRFTISRDNAKNSLYLQMNSLRAEDTAVYYCARMRLDYYAMDYWGQGTMVTVSSASTKGPSVFPLAPSSKSTSGGTAALGCLVKDYFPEPVTVSWNSGALTSGVHTFPAVLQSSGLYSLSSVVTVPSSSLGTQTYICNVNHKPSNTKVDKKVEPKSCDKTHTCPPCPAPEAAGGPSVFLFPPKPKDTLMISRTPEVTCWVDVSHEDPEVKFNWYVDGVEVHNAKTKPREEQYNSTYRWSVLTVLHQDWLNGKEYKCKVSNKALPAPIEKTISKAKGQPREPQVYTLPPSRDELTKNQVSLTCLVKGFYPSDIAVEWESNGQPENNYKTTPPVLDSDGSFFLYSKLTVDKSRWQQGNVFSCSVMHEALHNHYTQKSLSLSPGK
light: DIQMTQSPSSLSASVGDRVTITCRASKSISKYLAWYQQKPGKAPKLLIYSGSTLQSGVPSRFSGSGSGTDFTLTISSLQPEDFATYYCQQHNEYPWTFGGGTKVEIKRTVAAPSVFIFPPSDEQLKSGTASWCLLNNFYPREAKVQWKVDNALQSGNSQESVTEQDSKDSTYSLSSTLTLSKADYEKHKVYACEVTHQGLSSPVTKSFNRGEC
In the case of B1, the complement-dependent cytotoxicity [1] is reported as “No cytotoxicity”, the “dose proportionality of PK” value ([2]; 0.5-10 mg/kg) is reported as “roughly dose proportional” and the “increase of concentration at end of infusion (Ceoinf)” value [2, 5] is reported as 15 fold. The “increase of concentration at the end of the dosing interval (Ctrough)” value [2, 5] was 27 fold, the “increase of mean area under the concentration time curve over the first dosage interval” value [2, 5] was 17 fold and the terminal half-life ([3]; estimated based on the population PK model) was 19.9 days. For the same molecule, the volume of distribution ([3]; population PK model) was “approximated plasma volume”, the “dose linearity of PK” value ([3]; population PK model, 0.5-20 mg/kg, Q2W, Q3W, Q4W) was “dose-linear” and the “RO across all dose groups” value (TIGIT; 24 participants, 0.5-20 mg/kg Q2W/Q3W/Q4W, all post-dose time points) was “maximal RO”. The “TIGIT receptor occupancy (RO)” value (TIGIT; Q2W, monotherapy and combination cohorts, all cell types, 1 hour after end of infusion of first dose) was at least 98%, the “RO at later time points” value (TIGIT; Q2W, pre-dose Day 15, 29, 57, 85) was “complete RO was maintained” and the “depletion of peripheral T cells” value [4] was “does not deplete”.

From patent publication US20250179176A1, “ANTI-TIGIT ANTIBODIES AND USES OF THE SAME” (ARCUS BIOSCIENCES, INC., priority 2022, published 2025)
